PMC4586593
Where two headings read alike, the source gives them in different places.

Experiments:
[1] = target: unphosphorylated smooth muscle myosin (SMM) filaments stabilized against ATP-induced disassembly (UniProt P10587)
[2] = target: unphosphorylated smooth muscle myosin (SMM) filaments stabilized against ATP-induced disassembly (UniProt P10587); remark: listed apart in the source

Kd [1]: 1300 nM
Kd [2]: 1500 nM
Substance: smooth muscle MLCK, short isoform, from chicken gizzard, unlabeled (enzyme)
